B1: IKZF1 (parent)
chain: RDPFECNMCGYHSQDRYEFSSHIT

Variants of: B1
Experiment: protein stability index of a GFP-peptide fusion (GPS, HEK-293T) (PSI 1-6); higher = more stable
Conditions: c terminus: a fixed tail appended
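Further: lentivirally expressed fusions sorted by FACS into six bins by GFP to DsRed ratio, PSI derived from sequencing read proportions per bin multiplied by bin number.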

Variant	protein stability index
RDPFECNMCGYHSQDRYEFSSHMT [I23M]	2.27
RDPFECNMCGYHSQDRYEFSSHCT [I23C]	2.59
RDPFECNMCGYHSQDRYEFSSHDT [I23D]	3.32
RDPFECNMCGYHSQDRYEFSSHGT [I23G]	2.43
RDPFECNMCGYHSQDRYEFSSHKT [I23K]	2.75
RDPFECNMCGYHSQDRYEFSSHET [I23E]	3.48
RDPFECNMCGYHSQDRYEFSSHPT [I23P]	2.35
RDPFECNMCGYHSQDRYEFSSHVT [I23V]	2.43
RDPFECNMCGYHSQDRYEFSSHHT [I23H]	2.57
RDPFECNMCGYHSQDRYEFSSHST [I23S]	2.5
RDPFECNMCGYHSQDRYEFSSHWT [I23W]	1.77
RDPFECNMCGYHSQDRYEFSSHNT [I23N]	2.28
RDPFECNMCGYHSQDRYEFSSHQT [I23Q]	2.21
RDPFECNMCGYHSQDRYEFSSHRT [I23R]	2
RDPFECNMCGYHSQDRYEFSSHAT [I23A]	2.23
RDPFECNMCGYHSQDRYEFSSHYT [I23Y]	1.82
RDPFECNMCGYHSQDRYEFSSHTT [I23T]	2.36
RDPFECNMCGYHSQDRYEFSSHFT [I23F]	2.03
RDPFECNMCGYHSQDRYEFSSHLT [I23L]	2.15
RDPFECNMCGYHSQDRYEFSSDIT [H22D]	2.7
RDPFECNMCGYHSQDRYEFSSQIT [H22Q]	2.02
RDPFECNMCGYHSQDRYEFSSSIT [H22S]	1.88
RDPFECNMCGYHSQDRYEFSSWIT [H22W]	1.65
RDPFECNMCGYHSQDRYEFSSKIT [H22K]	1.92

Variant	protein stability index
RDPFECNMCGYHSQDRYEFSSYIT [H22Y]	2.84
RDPFECNMCGYHSQDRYEFSSIIT [H22I]	1.83
RDPFECNMCGYHSQDRYEFSSTIT [H22T]	2.08
RDPFECNMCGYHSQDRYEFSSPIT [H22P]	2.12
RDPFECNMCGYHSQDRYEFSSLIT [H22L]	1.81
RDPFECNMCGYHSQDRYEFSSFIT [H22F]	1.97
RDPFECNMCGYHSQDRYEFSSNIT [H22N]	2.28
RDPFECNMCGYHSQDRYEFSSRIT [H22R]	1.58
RDPFECNMCGYHSQDRYEFSSVIT [H22V]	1.75
RDPFECNMCGYHSQDRYEFSSEIT [H22E]	2.55
RDPFECNMCGYHSQDRYEFSSAIT [H22A]	2.15
RDPFECNMCGYHSQDRYEFSSMIT [H22M]	1.79
RDPFECNMCGYHSQDRYEFSSCIT [H22C]	2.54
RDPFECNMCGYHSQDRYEFSSGIT [H22G]	2.17
RDPFECNMCGYHSQDRYEFQSHIT [S20Q]	1.94
RDPFECNMCGYHSQDRYEFGSHIT [S20G]	2.05
RDPFECNMCGYHSQDRYEFVSHIT [S20V]	2.16
RDPFECNMCGYHSQDRYEFISHIT [S20I]	2.06
RDPFECNMCGYHSQDRYEFLSHIT [S20L]	2.44
RDPFECNMCGYHSQDRYEFYSHIT [S20Y]	1.71
RDPFECNMCGYHSQDRYEFCSHIT [S20C]	3.08
RDPFECNMCGYHSQDRYEFMSHIT [S20M]	2.06
RDPFECNMCGYHSQDRYEFPSHIT [S20P]	2.51
RDPFECNMCGYHSQDRYEFWSHIT [S20W]	2.15

Variant	protein stability index
RDPFECNMCGYHSQDRYEFDSHIT [S20D]	2.3
RDPFECNMCGYHSQDRYEFNSHIT [S20N]	2.08
RDPFECNMCGYHSQDRYEFASHIT [S20A]	2.13
RDPFECNMCGYHSQDRYEFESHIT [S20E]	2.64
RDPFECNMCGYHSQDRYEFHSHIT [S20H]	2.21
RDPFECNMCGYHSQDRYEFTSHIT [S20T]	2.04
RDPFECNMCGYHSQDRYEFRSHIT [S20R]	2.08
RDPFECNMCGYHSQDRYEFFSHIT [S20F]	1.59
RDPFECNMCGYHSQDRYEFKSHIT [S20K]	1.93
RDPFECNMCGYHSQDRYEFSSHIN [T24N]	2.23
RDPFECNMCGYHSQDRYEFSSHIV [T24V]	1.85
RDPFECNMCGYHSQDRYEFSSHIG [T24G]	1.74
RDPFECNMCGYHSQDRYEFSSHIY [T24Y]	1.39
RDPFECNMCGYHSQDRYEFSSHID [T24D]	2.68
RDPFECNMCGYHSQDRYEFSSHIQ [T24Q]	2.18
RDPFECNMCGYHSQDRYEFSSHIW [T24W]	2.71
RDPFECNMCGYHSQDRYEFSSHIP [T24P]	2.32
RDPFECNMCGYHSQDRYEFSSHIK [T24K]	2.52
RDPFECNMCGYHSQDRYEFSSHIR [T24R]	2.24
RDPFECNMCGYHSQDRYEFSSHIA [T24A]	2.42
RDPFECNMCGYHSQDRYEFSSHIC [T24C]	5.1
RDPFECNMCGYHSQDRYEFSSHIE [T24E]	2.47
RDPFECNMCGYHSQDRYEFSSHIM [T24M]	1.57
RDPFECNMCGYHSQDRYEFSSHIS [T24S]	1.75

Variant	protein stability index
RDPFECNMCGYHSQDRYEFSSHIH [T24H]	2.38
RDPFECNMCGYHSQDRYEFSSHIL [T24L]	2.19
RDPFECNMCGYHSQDRYEFSSHIF [T24F]	1.95
RDPFECNMCGYHSQDRYEFSSHII [T24I]	2.28
RDPFECNMCGYHSQDRYELSSHIT [F19L]	1.61
RDPFECNMCGYHSQDRYECSSHIT [F19C]	2.39
RDPFECNMCGYHSQDRYETSSHIT [F19T]	2.94
RDPFECNMCGYHSQDRYEYSSHIT [F19Y]	2.47
RDPFECNMCGYHSQDRYESSSHIT [F19S]	2.6
RDPFECNMCGYHSQDRYEMSSHIT [F19M]	2.28
RDPFECNMCGYHSQDRYEQSSHIT [F19Q]	3.14
RDPFECNMCGYHSQDRYERSSHIT [F19R]	2.38
RDPFECNMCGYHSQDRYEGSSHIT [F19G]	3.13
RDPFECNMCGYHSQDRYEDSSHIT [F19D]	3.29
RDPFECNMCGYHSQDRYEKSSHIT [F19K]	3.06
RDPFECNMCGYHSQDRYEHSSHIT [F19H]	3.13
RDPFECNMCGYHSQDRYEVSSHIT [F19V]	2.08
RDPFECNMCGYHSQDRYEPSSHIT [F19P]	3
RDPFECNMCGYHSQDRYEISSHIT [F19I]	2.4
RDPFECNMCGYHSQDRYEASSHIT [F19A]	2.59
RDPFECNMCGYHSQDRYEWSSHIT [F19W]	1.44
RDPFECNMCGYHSQDRYENSSHIT [F19N]	3.27
RDPFECNMCGYHSQDRYEESSHIT [F19E]	3.35
